This test addresses Recombinant PP99 gp55 tail spike protein (Pectobacterium phage PP99). The test is described as follows: SEC; gel-filtration of purified PP99 gp55 on a calibrated Superdex 200 10 x 300 column; oligomeric state. For orientation: SEC sorts molecules by how far they enter the pores of the column.

With “Recombinant PP99 gp55 tail spike protein (natural protein)”, the stoichiometry N – broadly, a count of units in the complex or per binding partner – amounted to 3.

For the origin of these results see publication PMC6989608.
